These are literature values, as cited in publication PMC8002405.

In this data set the target is Human neonatal Fc receptor (hFcRn) (UniProt P55899+P61769). The experiment in a line: microscale thermophoresis (MST). To be noted: pH 5.5.

In the case of Human IgG1 (wild type), the KD is 900 nM.
